Assay results as given in publication PMC3814767, “Target Specificity of the E3 Ligase LUBAC for Ubiquitin and NEMO Relies on Different Minimal Requirements* ^([image sbox.jpg])” (The Journal of Biological Chemistry, 2013).

Biological target: T1, N-terminal TAMRA-labeled ubiquitin (wild type) (UniProt P0CG48 1-76, TAMRA (5-carboxytetramethylrhodamine) label on the N-terminus)
T1 construct: also called ^TAMRAubiquitin; ^TAMRAUb; source: chemically synthesized (according to El Oualid et al.), purified over Resource S and gel filtration (Superdex 75)
Test: fluorescence polarisation; TAMRA-ubiquitin 1 nM, HOIP^LDD in 1:1 serial dilutions, three repeats; 20 mM Hepes pH 7.5, 150 mM NaCl, 5 mM βME, 1 g/liter chicken ovalbumin; fit to a 1:1 non-linear binding model
Settings: both partners purified

B1: HOIP linear ubiquitin chain determining domain (LDD) (domain or fragment, UniProt Q96EP0 910-1072, looked up)
chain: KCPEPNCRVKKSLHGHHPRDCLFYLRDWTALRLQKLLQDNNVMFNTEPPAGARAVPGGGCRVIEQKEVPNGLRDEACGKETPAGYAGLCQAHYKEYLVSLINAHSLDPATLYEVEELETATERYLHVRPQPLAGEDPPAYQARLLQKLTEEVPLGQSIPRRRK
notes: HOIP (RNF31), the C-terminal linear ubiquitin chain determining domain (LDD); also called HOIP^LDD; HOIP LDD domain
Kd: 160 ± 40 µM
